Numbering of substitutions follows the chain as printed. In names and notes the source's numbering stands. Ends that are not written are not given here.

First the molecules themselves.
T1: biotinylated peptide corresponding to residues 117 to 126 of human alpha synuclein (PVDPDNEAYE) (human, also: biotinylated, position not given here)
T1 construct: Captured on streptavidin plates for the ELISA
T1 peptide: PVDPDNEAYE

B1: rat-mouse chimeric recombinant antibody 5811 mFab (Fab, V domains shown)
VH: EMQLVESGGGLVQPKESLKISCAASGFTFNNAAMYWVRQAPGKGLEWVARIRTKPNNYATSYADSVKGRFTISRDDSKSMVYLQMDNLKSEDTAMYYCTADYSRGDRWGQGVMVTVSS
VL: NIQMTQSPPVLSASVGDRVTLSCKASQNINKNLDWYQQKHGEAPKLLMYYANNLQTGIPSRFSGSGSGTDYTLTISSLQPEDVATYYCYQYKNGWTFGGGTKLELKR
B2: Chimeric rat-human 5811 antibody (antibody, V domains shown)
VH: B1 VH
VL: NIQMTQSPPVLSASVGDRVTLSCKASQNINKNLDWYQQKHGEAPKLLMYYANNLQTGIPSRFSGSGSGTDYTLTISSLQPEDVATYYCYQYKNGWTFGGGTKLELK
notes: It was prepared like the humanized antibodies, with the human kappa constant region (Km3) and human gamma-4 with S241P (IgG4P); also called parental rat-human antibody
B3: rat-mouse chimeric recombinant antibody 5811 mIgG1 (antibody, V domains shown)
VH: B1 VH
VL: B1 VL
B4: Antibody 5811gL8gH4 IgG4P (antibody, V domains shown)
VH: EVQLVESGGGLVKPGGSLRLSCAASGFTFNNAAMYWVRQAPGKGLEWVARIRTKPNNYATSYADSVKGRFTISRDDSKNTLYLQMNSLKTEDTAVYYCTADYSRGDRWGQGTMVTVSS
VL: DIQMTQSPSSLSASVGDRVTITCKASQNINKNLDWYQQKPGKAPKLLIYYANNLQTGVPSRFSGSGSGTDFTLTISSLQPEDFATYYCYQYKNGWTFGQGTKVEIKR
B5: Antibody 5811gL14gH4 IgG4P (antibody, V domains shown)
VH: B4 VH
VL: B4 VL with G94A
B6: Antibody 5811gL5gH4 IgG4P (antibody, V domains shown)
VH: B4 VH
VL: B4 VL with F71Y
notes: also called VR5811
B7: peptide AS104-113 (peptide)
peptide: Ac-EEGAPQEGIL-NH2
notes: Synthetic peptide of human alpha synuclein

In assay [1] the target is T2, recombinant mouse alpha synuclein fibrils (mouse, UniProt O55042 1-140). In words: SPR (Biacore T200), antigen amine-coupled to CM5 chip, Fab as analyte, 1:1 model. In general terms: SPR reads the build-up and loss of mass on a sensor chip optically.
Procedure: (§1) Interaction kinetics were determined by using surface plasmon resonance technology on a Biacore T200 instrument. Three different ligands including recombinant full-length human alpha synuclein monomer, purified recombinant human alpha synuclein fibrils, and purified recombinant mouse alpha synuclein fibrils, prepared as described herein, were each immobilized on three different flow cells of a CM5 chip surface using amine-coupling chemistry. The three ligands were prepared in 10 mM NaAc, pH 3.5, and immobilized onto separate flow cell surfaces to reach an immobilization level of about 30 response units (RU) for alpha synuclein monomer, about 40 RU for human alpha synuclein fibrils, and about 300 RU for mouse alpha synuclein fibrils respectively, at a flow rate of 10 μl/min. The buffer HBS-EP+(GE healthcare Bio-Sciences AB) was used as running buffer for both ligand immobilization and kinetics assay. […] The surface was regenerated by one injection of 50 mM HCl for 90 s at 10 μl/min, and another injection of 50 mM HCl for 60 s at 10 μl/min. The data were analyzed using the Biacore T200 evaluation software (version 3.0) using the bivalent analyte model with assumed no bulk contribution (RI=0) and global Rmax for mIgG1 format, and 1:1 model with flexible bulk contribution (local RI) and global Rmax.
For assay [2], the target named is T3, recombinant full-length human alpha synuclein monomer (human, UniProt P37840 1-140). The assay is described as above.
Procedure: as §1
Assay [3] addresses T4, recombinant human alpha synuclein fibrils (human, UniProt P37840 1-140). The assay is described as above.
Procedure: as §1
In assay [4] the target is T1, biotinylated peptide corresponding to …. In words: streptavidin-capture ELISA on biotinylated peptide PVDPDNEAYE, HRP secondary antibody, TMB, OD 630 nm. On the technique in general: ELISA stands for enzyme-linked immunosorbent assay.
Procedure: Purified rat-mouse chimeric antibodies were then subject to further screening by ELISA. […] Plates were blocked with 1% w/v PEG/PBS and then incubated with several dilutions of purified transient supernatant. Secondary HRP-conjugated goat anti-mouse IgG Fc antibody (Stratech Scientific Ltd/Jackson ImmunoResearch) was added to plates, followed by visualization of binding with TMB substrate (3,3′,5,5′-Tetramethylbenzidine, from EMD Millipore; 10 μl/well).
The target in assay [5] is T4, recombinant human alpha synuclein …. In words: kinetics on alpha synuclein fibrils; method not named in Example 4 (ka1/kd1 as in the Biacore bivalent analyte model).
The target of assay [6] is T5, human beta synuclein (rPeptide) (human, UniProt Q16143 1-134).
T5 construct: also called rPeptide beta synuclein; human betα-synuclein
T5 sequence (Q16143 whole entry): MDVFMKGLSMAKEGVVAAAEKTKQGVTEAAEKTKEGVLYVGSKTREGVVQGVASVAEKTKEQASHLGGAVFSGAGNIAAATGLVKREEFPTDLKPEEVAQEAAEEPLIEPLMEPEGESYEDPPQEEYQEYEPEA
In words: Western blot.
Procedure: The binding of antibodies raised against human alpha synuclein to human beta synuclein were tested by Western blot using rPeptide beta synuclein. […] The membrane was blocked in PBS with 3% BSA and 0.1% Tween20. […] The blot was washed extensively in PBS with 0.1% Tween20, PBS and water. Chemi-luminescence was measured after addition of ECL Western blot substrate (Pierce).
The blot was washed after 1-hour incubation at room temperature with 0.1% Tween in PBS.

Assay [7] has as its target T2, recombinant mouse alpha synuclein …. In words: SPR (Biacore T200), antigen amine-coupled to CM5 chip, IgG as analyte, bivalent analyte model (KD1).
Procedure: as §1
Assay [8] concerns the target T3, recombinant full-length human alpha …. The description is as above.
Procedure: as §1
Assay [9] addresses T4, recombinant human alpha synuclein …. The assay is described as above.
Procedure: as §1
Assay [10] deals with B1. In words: competitive SPR (Biacore 3000): 50 nM 5811 mFab pre-incubated with 1 µM peptide, injected over immobilised human alpha synuclein monomer and fibrils.
Procedure: Recombinant human alpha synuclein monomer and pre-formed alpha synuclein fibrils were immobilized on a CM5 chip using a Biacore 3000 instrument (GE Healthcare). Following activation of the carboxymethyl dextran surface by injection of 100 μl of a fresh 1:1 (v/v) mixture of 50 mM N-hydroxysuccimide and 200 mM 1-ethyl-3-(3-dimethylaminopropyl)-carbodiimide at a flow rate of 10 μl/min HBS-EP (GE Healthcare) as running buffer, coupling was achieved by injecting 100 μl of monomer and fibrils, at 5 μM in 10 mM acetate pH 5.0, over separate flow cells. A reference flow cell was activated in the same manner and then all flow cell surfaces were deactivated with a 50 μl pulse of 1 M ethanolamine.HCl pH 8.5.
Peptide solutions were prepared in running buffer at 100 μM and a peptide blank control prepared as a 1 in 100 dilution of DMSO in running buffer. […] Sensograms were recorded for each sample by injecting 30 μl of the mixture at 10 μl/min and recording a report point 5 seconds before the end of the injection. The chip was regenerated at the end of each cycle by two 10 μl injections of 40 mM HCl and one injection of 5 mM NaOH. Control cycles were alternated with peptide cycles.
Assay [11] deals with T4, recombinant human alpha synuclein …. In words: cell-based or functional assay.
Assay [12] has the same target. Kind of assay: cell-based or functional assay. This is another data set of the same source.
Assay [13] shares this target. Kind of assay: kinetics on human fibril; method not named (same values as Table 5).

Broadly, the EC50 (read off the curve) is the midpoint of the concentration-response curve. The low end stands for a more potent agent, the high end for a less potent agent. For the molecule B1, the Kd turned out to be 42.9 nM in [1], 0.29 nM in [2] and 0.6 nM in assay [3]. The “EC50 (read off the curve)” value in assay [4] was approximately 0.4 µg/mL.

Turning to B2, the Kd in assay [5] came to 0.0156 nM.

As for B3, in [6], the binding result is reported as “no binding (tested: 1 micro gram of synuclein per lane)”. Besides, the Kd in assay [7] came out at 119 nM; in [8], 0.53 nM; in assay [9] it was 0.03 nM.

For the molecule Ac-GILEDMPVDP-NH2 [peptide AS111-120], the binding result in assay [10] is recorded as “no binding (tested: 1 µM)”.

On to Ac-LEDMPVDPDN-NH2 [peptide AS113-122], for which the binding result in assay [10] is given as “binds”.

The koff is the first-order rate constant of dissociation. The kon is the rate constant with which the complex forms. For B4, in [5], the Kd came to 0.0159 nM, the koff was 5.17e-05 s⁻¹ and the kon came out at 3.26e+06 M⁻¹ s⁻¹. Also, in assay [11], the “IC50, aggregation assay on mouse primary neurons (pSer129 alpha synuclein signal)” value (“IC50, aggregation assay” below) is less than 5 nM and the “IC50, cell-based aggregation assay (HEK cells expressing alpha synuclein, % pSer129+ cells)” value was not above 5 nM.

With B5, in [5], the Kd was found to be 0.0185 nM, the koff was found to be 2.04e-05 s⁻¹ and the kon came to 1.1e+06 M⁻¹ s⁻¹. Also, in [11], the “IC50, aggregation assay” value is less than 5 nM and the “IC50, cell-based aggregation assay (HEK cells expressing alpha synuclein, % pSer129+ cells)” value was not above 5 nM.

For B6, the “IC50 (nM), cell-based aggregation assays” value in assay [12] was less than 5 nM. Moreover, in [13], the Kd was found to be 0.015 nM, the koff came out at 4.1e-05 s⁻¹ and the on-rate constant (kon) was 2.74e+06 M⁻¹ s⁻¹. In addition, in [5], the Kd turned out to be 0.015 nM, the koff stood at 4.1e-05 s⁻¹ and the kon amounted to 2.74e+06 M⁻¹ s⁻¹. Also, in assay [11], the “IC50, aggregation assay” value was less than 5 nM and the “IC50, cell-based aggregation assay (HEK cells expressing alpha synuclein, % pSer129+ cells)” value was not above 5 nM.

For B7, the binding result in assay [10] was “no binding (tested: 1 µM)”.

As to Ac-YEMPSEEGYQ-NH2 [peptide AS125-134], the binding result in assay [10] is “no binding (tested: 1 µM)”.

Take Ac-SEEGYQDYEP-NH2 [129-138]: the binding result in assay [10] is listed as “no binding (tested: 1 µM)”.

Consider Ac-DMPVDPDNEA-NH2 [peptide AS115-124], for which, in assay [10], the binding result is “binds”.

As for Ac-QEGILEDMPV-NH2 [peptide AS109-118], the binding result in [10] was “no binding (tested: 1 µM)”.

With Ac-DNEAYEMPSE-NH2 [peptide AS121-130], in [10], the binding result is “no binding (tested: 1 µM)”.

Consider Ac-MPSEEGYQDY-NH2 [peptide AS127-136], for which the binding result in assay [10] is “no binding (tested: 1 µM)”.

As to Ac-DPDNEAYEMP-NH2 [peptide AS119-128], the binding result in assay [10] was “binds”.

With Ac-EGYQDYEPEA-OH (also called AS131-140) [131-140], the binding result in assay [10] is given as “no binding (tested: 1 µM)”.

In the case of Ac-EAYEMPSEEG-NH2 [peptide AS123-132], the binding result in assay [10] is “no binding (tested: 1 µM)”.
